Earlier results on one substance are cited in PMC10347550, “Cyclic Ruthenium-Peptide Conjugates as Integrin-Targeting Phototherapeutic Prodrugs for the Treatment of Brain Tumors” (Journal of the American Chemical Society, 2023).

Broadly, the Kd is the equilibrium constant for the complex coming apart.

In this data set the target is fibrinogen (Homo sapiens) (UniProt P02671).
Sequence of fibrinogen (Homo sapiens) (P02671 36-866, chain 1 of 3): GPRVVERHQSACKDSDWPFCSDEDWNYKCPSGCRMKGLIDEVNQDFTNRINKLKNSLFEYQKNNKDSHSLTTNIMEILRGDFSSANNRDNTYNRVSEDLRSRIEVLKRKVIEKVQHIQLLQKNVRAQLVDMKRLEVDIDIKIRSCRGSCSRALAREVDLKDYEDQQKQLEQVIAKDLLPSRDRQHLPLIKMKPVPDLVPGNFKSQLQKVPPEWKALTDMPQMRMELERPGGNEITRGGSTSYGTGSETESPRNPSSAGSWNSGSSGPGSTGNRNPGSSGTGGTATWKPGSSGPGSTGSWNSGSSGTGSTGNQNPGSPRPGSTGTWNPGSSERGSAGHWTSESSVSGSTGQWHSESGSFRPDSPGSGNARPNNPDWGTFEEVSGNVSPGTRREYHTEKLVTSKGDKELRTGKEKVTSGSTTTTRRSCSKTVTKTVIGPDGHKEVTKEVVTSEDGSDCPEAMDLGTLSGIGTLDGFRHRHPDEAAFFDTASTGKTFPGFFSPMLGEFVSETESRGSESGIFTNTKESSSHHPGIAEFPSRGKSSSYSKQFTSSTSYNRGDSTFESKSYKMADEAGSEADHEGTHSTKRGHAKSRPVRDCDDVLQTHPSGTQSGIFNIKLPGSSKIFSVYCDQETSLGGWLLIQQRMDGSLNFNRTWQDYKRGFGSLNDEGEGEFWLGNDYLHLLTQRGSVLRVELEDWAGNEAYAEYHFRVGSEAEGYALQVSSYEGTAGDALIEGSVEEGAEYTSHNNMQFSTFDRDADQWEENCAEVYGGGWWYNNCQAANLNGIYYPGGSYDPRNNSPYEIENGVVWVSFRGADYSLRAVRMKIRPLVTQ
Sequence of fibrinogen (Homo sapiens) (P02675 45-491, chain 2 of 3, further chain): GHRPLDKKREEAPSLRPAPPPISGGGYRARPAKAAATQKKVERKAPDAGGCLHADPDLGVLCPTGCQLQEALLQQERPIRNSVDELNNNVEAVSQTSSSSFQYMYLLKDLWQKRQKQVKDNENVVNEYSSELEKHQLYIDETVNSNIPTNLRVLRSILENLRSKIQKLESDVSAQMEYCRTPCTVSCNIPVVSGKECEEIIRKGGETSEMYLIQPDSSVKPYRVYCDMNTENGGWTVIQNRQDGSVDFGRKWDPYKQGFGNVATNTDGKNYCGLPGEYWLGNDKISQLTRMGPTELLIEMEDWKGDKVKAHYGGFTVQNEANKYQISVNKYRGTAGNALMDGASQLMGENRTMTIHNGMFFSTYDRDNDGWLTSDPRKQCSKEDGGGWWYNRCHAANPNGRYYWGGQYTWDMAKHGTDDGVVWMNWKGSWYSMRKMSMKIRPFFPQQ
Sequence of fibrinogen (Homo sapiens) (P02679 27-453, chain 3 of 3, further chain): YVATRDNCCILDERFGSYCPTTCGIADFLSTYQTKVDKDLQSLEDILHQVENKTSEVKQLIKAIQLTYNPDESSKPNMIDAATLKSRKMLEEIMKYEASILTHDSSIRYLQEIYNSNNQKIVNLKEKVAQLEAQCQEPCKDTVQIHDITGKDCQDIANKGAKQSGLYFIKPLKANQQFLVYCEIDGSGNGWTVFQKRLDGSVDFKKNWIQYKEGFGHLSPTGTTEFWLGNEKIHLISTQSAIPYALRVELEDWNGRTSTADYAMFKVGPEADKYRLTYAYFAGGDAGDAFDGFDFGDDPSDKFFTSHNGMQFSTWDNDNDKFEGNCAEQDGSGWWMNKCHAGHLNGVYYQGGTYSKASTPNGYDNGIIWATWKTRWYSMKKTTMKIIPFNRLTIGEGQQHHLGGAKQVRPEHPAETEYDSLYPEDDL

As to integrin αIIbβ3 (from UniProt P08514), the Kd was 30 nM.
